What was measured:
Assay in all cases: purified protein
Conditions in all cases: donor substrate; acceptor methyl alpha-D-mannopyranoside
[1] = test system: O=c1ccn([C@@H]2O[C@H](COP(=O)(O)OP(=O)(O)O[C@H]3O[C@H](CO)[C@H](O)[C@H](O)[C@H]3O)[C@@H](O)[C@H]2O)c(=O)[nH]1
[2] = test system: O=c1ccn([C@@H]2O[C@H](COP(=O)(O)OP(=O)(O)O[C@H]3O[C@@H]([C@H](O)CO)[C@H](O)[C@H]3O)[C@@H](O)[C@H]2O)c(=O)[nH]1
[3] = test system: Nc1nc2c(ncn2[C@@H]2O[C@H](COP(=O)(O)OP(=O)(O)O[C@H]3O[C@H](CO)[C@@H](O)[C@H](O)[C@H]3O)[C@@H](O)[C@H]2O)c(=O)[nH]1
[4] = test system: O=c1ccn([C@@H]2O[C@H](CO[P@@](=O)(O)O[P@@](=O)(O)O[C@H]3O[C@H](CO)[C@@H](O)[C@H](O)[C@H]3O)[C@@H](O)[C@H]2O)c(=O)[nH]1
[5] = test system: Nc1nc2c(ncn2[C@@H]2O[C@H](COP(=O)(O)OP(=O)(O)O[C@H]3O[C@H](CO)[C@@H](O)[C@H](O)[C@@H]3O)[C@@H](O)[C@H]2O)c(=O)[nH]1

Substance	Km [1]	kcat [1]	kcat/Km [1]	Km [2]	kcat [2]	kcat/Km [2]	Km [3]	kcat [3]	kcat/Km [3]	Km [4]	kcat [4]	kcat/Km [4]	Km [5]	kcat [5]	kcat/Km [5]
LPG1 (Leishmania major)	230 ± 20 µM	5.33 ± 0.367 s⁻¹	23300 M⁻¹ s⁻¹	70 ± 70 µM	512.5 ± 1.03 s⁻¹	6.83e+06 M⁻¹ s⁻¹									
LPG1G (Leishmania major)	5 ± 1 µM	2.2 ± 0.167 s⁻¹	466000 M⁻¹ s⁻¹	30 ± 40 µM	205.9 ± 0.967 s⁻¹	6.56e+06 M⁻¹ s⁻¹									
LPG1L (Leishmania major)	50 ± 10 µM	7.8 ± 0.833 s⁻¹	165000 M⁻¹ s⁻¹	20 ± 20 µM	88.3 ± 1.05 s⁻¹	4.85e+06 M⁻¹ s⁻¹	43 ± 5 µM	0.4 ± 0.05 s⁻¹	8330 M⁻¹ s⁻¹	6 ± 1 µM	3.42 ± 0.433 s⁻¹	578000 M⁻¹ s⁻¹	32 ± 5 µM	1.43 ± 0.1 s⁻¹	47700 M⁻¹ s⁻¹
LPG1R (Leishmania major)				550 ± 680 µM	10.6 ± 1.27 s⁻¹	19100 M⁻¹ s⁻¹				38 ± 5 µM	5.05 ± 0.55 s⁻¹	133000 M⁻¹ s⁻¹			

— publication PMC6279836, “The LPG1x family from Leishmania major is constituted of rare eukaryotic galactofuranosyltransferases with unprecedented catalytic properties” (Scientific Reports, 2018)
